According to US20240270825A1 (CENTIVAX, published 2024):
Substitutions are numbered along the chain they refer to.

T1: MERS Receptor Binding Domain (RBD) protein (Middle East Respiratory Syndrome (MERS) …, UniProt K9N5Q8 367-606)
T1 construct: also called Middle East Respiratory Syndrome (MERS) virus
T1 sequence: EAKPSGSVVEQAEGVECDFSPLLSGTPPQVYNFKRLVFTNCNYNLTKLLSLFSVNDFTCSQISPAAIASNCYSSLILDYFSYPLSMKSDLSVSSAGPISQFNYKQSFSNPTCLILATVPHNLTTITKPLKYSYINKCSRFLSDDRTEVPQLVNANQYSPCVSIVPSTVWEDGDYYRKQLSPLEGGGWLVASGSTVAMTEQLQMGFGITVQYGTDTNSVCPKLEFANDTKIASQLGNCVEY

B1: COVID19_P22_F04 (scFv, V domains shown)
VH: QVQLVQSGAEVKKPGSSVKVSCKASGGGFITYWIGWVRQAPGQGLEWMGIIYPGDGEARYSQKFQGRVTITADESTSTAYMELSSLRSEDTAVYYCAGGSGISTPMDVWGQGTLVTVSS
VL: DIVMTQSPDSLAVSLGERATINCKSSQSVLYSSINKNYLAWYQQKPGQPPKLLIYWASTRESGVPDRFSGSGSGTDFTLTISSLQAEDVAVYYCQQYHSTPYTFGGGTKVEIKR
B2: COVID19_P21_A08 (scFv, V domains shown)
VH: B1 VH with G28T, I50W, Y52N, G54N, D55S, E57G, A58T, R59N, S61A
VL: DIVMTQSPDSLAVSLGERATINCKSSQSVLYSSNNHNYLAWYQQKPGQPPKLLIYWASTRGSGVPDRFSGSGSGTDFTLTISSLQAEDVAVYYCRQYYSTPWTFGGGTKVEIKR
B3: COVID19_P10_C05 (scFv, V domains shown)
VH: B1 VH with G28T, G99S, S100G
VL: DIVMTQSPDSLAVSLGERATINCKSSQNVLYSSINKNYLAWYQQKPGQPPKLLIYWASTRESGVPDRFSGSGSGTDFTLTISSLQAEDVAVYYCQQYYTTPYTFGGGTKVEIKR
B4: COVID19_P22_G12 (scFv, V domains shown)
VH: B1 VH with G56S, A58T
VL: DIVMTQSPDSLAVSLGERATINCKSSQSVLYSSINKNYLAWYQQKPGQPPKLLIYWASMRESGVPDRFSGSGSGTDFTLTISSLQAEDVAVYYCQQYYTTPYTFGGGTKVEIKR
B5: COVID19_P21_H01 (scFv, V domains shown)
VH: B1 VH with G27Y, I30S, I50W, Y52N, G54N, D55S, E57G, A58T, R59N, S61A
VL: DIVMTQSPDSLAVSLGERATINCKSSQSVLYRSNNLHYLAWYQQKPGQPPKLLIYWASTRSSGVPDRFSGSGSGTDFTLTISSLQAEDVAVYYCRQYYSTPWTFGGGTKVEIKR
B6: COVID19_P22_F11 (scFv, V domains shown)
VH: B1 VH with G35S, S103I, T104Q
VL: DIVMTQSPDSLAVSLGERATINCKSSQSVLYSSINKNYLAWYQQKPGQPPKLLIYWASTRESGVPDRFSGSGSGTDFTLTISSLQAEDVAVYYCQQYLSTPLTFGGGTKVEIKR
B7: COVID19_P22_E06 (scFv, V domains shown)
VH: B1 VH with G56S, A58T, T104S, P105D
VL: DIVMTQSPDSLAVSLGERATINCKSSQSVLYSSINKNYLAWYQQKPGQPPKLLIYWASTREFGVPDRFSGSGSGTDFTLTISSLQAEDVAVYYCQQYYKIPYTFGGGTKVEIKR
B8: COVID19_P10_D08 (scFv, V domains shown)
VH: QVQLVQSGAEVKKPGSSVKVSCKASGGTFNSHAISWVRQAPGQGLEWMGWINPNSGATNYAQKFQGRVTITADESTSTAYMELSSLRSEDTAVYYCAGGSGISTPVGVWGQGTLVTVSS
VL: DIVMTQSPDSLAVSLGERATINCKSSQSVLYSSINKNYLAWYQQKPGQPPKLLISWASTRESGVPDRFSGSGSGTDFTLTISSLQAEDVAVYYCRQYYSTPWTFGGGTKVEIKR
B9: COVID19_P10_G03 (scFv, V domains shown)
VH: B8 VH with N30S, S31N, H32S, A33S, S35N, W50R, A57G, V106M, G107D
VL: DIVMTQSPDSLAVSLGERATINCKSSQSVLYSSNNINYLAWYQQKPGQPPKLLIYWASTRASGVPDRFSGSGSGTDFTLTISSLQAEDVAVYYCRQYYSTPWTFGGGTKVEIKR
B10: COVID19_P21_B09 (scFv, V domains shown)
VH: B1 VH with G27Y, G28T, I30T, T31G, Y32H, W33Y, I34M, G35H, G56S
VL: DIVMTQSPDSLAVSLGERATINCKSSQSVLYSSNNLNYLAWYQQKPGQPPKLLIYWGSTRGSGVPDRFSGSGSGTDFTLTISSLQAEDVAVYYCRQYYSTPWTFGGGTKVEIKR
B11: COVID19_P09_D06 (scFv, V domains shown)
VH: B1 VH with G27Y, G56S, A58T, S61A, S103Y, T104V
VL: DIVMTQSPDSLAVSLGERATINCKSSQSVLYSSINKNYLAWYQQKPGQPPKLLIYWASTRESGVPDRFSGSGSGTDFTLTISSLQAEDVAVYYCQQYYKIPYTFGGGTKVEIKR
B12: COVID19_P22_H10 (scFv, V domains shown)
VH: B1 VH with I30S, M48V, I50W, Y52N, G54N, D55S, E57A, A58T, R59K, S61A
VL: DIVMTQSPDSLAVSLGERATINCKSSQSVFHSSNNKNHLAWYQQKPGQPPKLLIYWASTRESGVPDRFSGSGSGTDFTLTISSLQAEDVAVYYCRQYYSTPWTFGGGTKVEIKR
B13: COVID19_P09_H09 (scFv, V domains shown)
VH: B1 VH with G28T, G35Y, Q65Y, G99S, S100G
VL: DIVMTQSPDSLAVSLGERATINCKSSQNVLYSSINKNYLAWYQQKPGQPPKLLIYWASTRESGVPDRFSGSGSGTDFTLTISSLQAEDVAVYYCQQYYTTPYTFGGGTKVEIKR
B14: COVID19_P22_B04 (scFv, V domains shown)
VH: B1 VH with G27Y, G56S, A58T, S61A, S100E
VL: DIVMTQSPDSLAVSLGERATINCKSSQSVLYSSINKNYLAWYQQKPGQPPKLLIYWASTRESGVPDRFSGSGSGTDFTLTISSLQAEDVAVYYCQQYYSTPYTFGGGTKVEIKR
B15: COVID19_P09_C05 (scFv, V domains shown)
VH: QVQLVQSGAEVKKPGSSVKVSCKASGYSFSDYYIHWVRQAPGQGLEWMGWIDPNSGGTNYAQKFQGRVTITADESTSTAYMELSSLRSEDTAVYYCAGGSGISTPMDVWGQGTLVTVSS
VL: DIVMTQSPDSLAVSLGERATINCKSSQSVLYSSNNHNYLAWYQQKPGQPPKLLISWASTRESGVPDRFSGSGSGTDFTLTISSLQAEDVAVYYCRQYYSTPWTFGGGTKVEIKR
B16: COVID19_P21_B01 (scFv, V domains shown)
VH: B15 VH with S28T, D31T, Y33W, H35G
VL: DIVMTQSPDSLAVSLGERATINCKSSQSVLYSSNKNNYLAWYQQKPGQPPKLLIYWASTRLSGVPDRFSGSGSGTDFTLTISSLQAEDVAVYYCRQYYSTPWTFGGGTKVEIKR
B17: COVID19_P21_H03 (scFv, V domains shown)
VH: QVQLVQSGAEVKKPGSSVKVSCKASGYTFTNYGINWVRQAPGQGLEWMGWMNPYSGNTGYAQKFQGRVTITADESTSTAYMELSSLRSEDTAVYYCAVLSGISTPMDVWGQGTLVTVSS
VL: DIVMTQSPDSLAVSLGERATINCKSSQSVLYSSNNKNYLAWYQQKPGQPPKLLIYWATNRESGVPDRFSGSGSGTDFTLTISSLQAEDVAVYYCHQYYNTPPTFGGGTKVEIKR
B18: COVID19_P10_A09 (scFv, V domains shown)
VH: B15 VH with S28T, S30T, I51M, D52N, G57N, N59G, K63N, P105A, M106W
VL: DIVMTQSPDSLAVSLGERATIRCTSSLSLQDRSNNKNYLTWYQQKPGQPPKLLIYWASTRESGVPDRFSGSGSGTDFTLTISSLQAEDVAVYYCQQHYSAPLTFGGGTKVEIKR
B19: COVID19_P21_B02 (scFv, V domains shown)
VH: B17 VH with Y54N, V98A, L99V
VL: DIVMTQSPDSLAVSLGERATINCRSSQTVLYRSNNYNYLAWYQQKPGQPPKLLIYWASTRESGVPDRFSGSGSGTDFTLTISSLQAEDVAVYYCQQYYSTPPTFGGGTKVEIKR
B20: COVID19_P21_E04 (scFv, V domains shown)
VH: B17 VH with V37M, Y54N, V98G, L99G
VL: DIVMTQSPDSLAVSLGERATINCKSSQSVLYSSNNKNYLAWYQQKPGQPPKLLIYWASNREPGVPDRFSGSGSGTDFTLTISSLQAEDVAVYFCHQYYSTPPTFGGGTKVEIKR
B21: COVID19_P09_G12 (scFv, V domains shown)
VH: B17 VH with T28P, N35S, Y54N, V98T
VL: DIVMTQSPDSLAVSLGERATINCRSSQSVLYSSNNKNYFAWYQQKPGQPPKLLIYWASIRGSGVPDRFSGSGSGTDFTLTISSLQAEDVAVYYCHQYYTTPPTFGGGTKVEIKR
B22: COVID19_P09_B09 (scFv, V domains shown)
VH: QVQLVQSGAEVKKPGSSVKVSCKASGYRFTDYHLHWVRQAPGQGLEWMGGIVPFSGTTNFAQKFQGRVTITADESTSTAYMELSSLRSEDTAVYYCAGGSGETTPMDVWGQGTLVTVSS
VL: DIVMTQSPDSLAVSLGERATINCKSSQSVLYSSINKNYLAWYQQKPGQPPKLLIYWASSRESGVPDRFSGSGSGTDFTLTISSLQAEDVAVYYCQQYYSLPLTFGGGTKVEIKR
B23: COVID19_P22_C09 (scFv, V domains shown)
VH: QVQLVQSGAEVKKPGSSVKVSCKASGYNFTDYHIQWVRQAPGQGLEWVGMIIPRHGGTAYAQRFQGRVTITADESTSTAYMELSSLRSEDTAVYYCAGGSGLTTPMDVWGQGTLVTVSS
VL: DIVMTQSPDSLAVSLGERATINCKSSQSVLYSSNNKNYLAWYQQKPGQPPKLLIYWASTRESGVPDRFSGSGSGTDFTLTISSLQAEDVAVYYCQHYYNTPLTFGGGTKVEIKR
B24: COVID19_P10_B10 (scFv, V domains shown)
VH: B23 VH with N28S, T30S, I34V, Q35H, R63K, L102I, T103S
VL: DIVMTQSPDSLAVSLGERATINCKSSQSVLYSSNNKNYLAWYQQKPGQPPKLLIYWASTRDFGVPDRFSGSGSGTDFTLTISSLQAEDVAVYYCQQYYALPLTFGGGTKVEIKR
B25: COVID19_P09_B10 (scFv, V domains shown)
VH: B15 VH with S30T, Y33H, G49A, W50M, D52V, N54R, S55G, G57S, N59T
VL: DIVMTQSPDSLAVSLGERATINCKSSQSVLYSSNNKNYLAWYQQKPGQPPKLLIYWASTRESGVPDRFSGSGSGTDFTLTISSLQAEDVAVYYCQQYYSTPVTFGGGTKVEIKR
B26: COVID19_P09_G02 (scFv, V domains shown)
VH: QVQLVQSGAEVKKPGSSVKVSCKASGGTFSSYAISWVRQAPGQGLEWMGIIYPGDSTTNYSQKFQGRVTITADESTSTAYMELSSLRSEDTAVYYCAGHWGISTPMDVWGQGTLVTVSS
VL: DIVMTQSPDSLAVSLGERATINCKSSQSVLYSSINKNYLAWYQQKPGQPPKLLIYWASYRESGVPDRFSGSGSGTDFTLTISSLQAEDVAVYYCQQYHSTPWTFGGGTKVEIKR
B27: COVID19_P09_H08 (scFv, V domains shown)
VH: B26 VH with I50G, Y52I, G54I, D55F, S56G, S61A, H99E
VL: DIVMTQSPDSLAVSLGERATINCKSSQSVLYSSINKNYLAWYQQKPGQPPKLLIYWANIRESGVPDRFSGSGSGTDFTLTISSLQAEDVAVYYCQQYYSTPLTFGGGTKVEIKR
B28: COVID19_P09_B07 (scFv, V domains shown)
VH: B26 VH with I50G, Y52I, G54T, D55L, S56G, T58A, S61A, H99S
VL: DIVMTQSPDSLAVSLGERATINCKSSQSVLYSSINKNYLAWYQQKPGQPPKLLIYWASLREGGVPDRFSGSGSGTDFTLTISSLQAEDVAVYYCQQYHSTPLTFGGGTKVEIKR
B29: COVID19_P10_B06 (scFv, V domains shown)
VH: B26 VH with N59R, A97Y, G98S, H99G, W100S
VL: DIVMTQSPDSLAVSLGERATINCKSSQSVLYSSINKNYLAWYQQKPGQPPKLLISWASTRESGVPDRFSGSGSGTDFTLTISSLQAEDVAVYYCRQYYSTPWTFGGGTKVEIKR
B30: COVID19_P09_E05 (scFv, V domains shown)
VH: B26 VH with N59R, A97Y, G98S, H99G, W100S
VL: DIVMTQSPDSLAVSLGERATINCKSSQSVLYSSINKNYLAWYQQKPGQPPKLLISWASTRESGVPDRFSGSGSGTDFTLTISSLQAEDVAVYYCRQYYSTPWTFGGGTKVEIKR
B31: COVID19_P09_A09 (scFv, V domains shown)
VH: B26 VH with N59R, A97Y, G98S, H99G, W100S
VL: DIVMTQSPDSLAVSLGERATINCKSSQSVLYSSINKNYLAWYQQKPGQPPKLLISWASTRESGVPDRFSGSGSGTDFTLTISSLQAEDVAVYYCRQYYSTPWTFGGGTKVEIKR

molecular target: T1, MERS Receptor Binding Domain (RBD) …; assay: SPR Carterra LSA, scFv captured via anti-V5

Row | Binder | binding result
1 | B1 | no binding (tested: 300 nM)
2 | B2 | no binding (tested: 300 nM)
3 | B3 | no binding (tested: 300 nM)
4 | B4 | no binding (tested: 300 nM)
5 | B5 | no binding (tested: 300 nM)
6 | B6 | no binding (tested: 300 nM)
7 | B7 | no binding (tested: 300 nM)
8 | B8 | no binding (tested: 300 nM)
9 | B9 | no binding (tested: 300 nM)
10 | B10 | no binding (tested: 300 nM)
11 | B11 | no binding (tested: 300 nM)
12 | B12 | no binding (tested: 300 nM)
13 | B13 | no binding (tested: 300 nM)
14 | B14 | no binding (tested: 300 nM)
15 | B15 | no binding (tested: 300 nM)
16 | B16 | no binding (tested: 300 nM)

Row | Binder | binding result
17 | B17 | no binding (tested: 300 nM)
18 | B18 | no binding (tested: 300 nM)
19 | B19 | no binding (tested: 300 nM)
20 | B20 | no binding (tested: 300 nM)
21 | B21 | no binding (tested: 300 nM)
22 | B22 | no binding (tested: 300 nM)
23 | B23 | no binding (tested: 300 nM)
24 | B24 | no binding (tested: 300 nM)
25 | B25 | no binding (tested: 300 nM)
26 | B26 | no binding (tested: 300 nM)
27 | B27 | no binding (tested: 300 nM)
28 | B28 | no binding (tested: 300 nM)
29 | B29 | no binding (tested: 300 nM)
30 | B30 | no binding (tested: 300 nM)
31 | B31 | no binding (tested: 300 nM)

molecular target: T2, SARS-CoV-1 Receptor Binding Domain (RBD) protein (SARS-CoV-1, UniProt P59594 306-527); assay: SPR Carterra LSA, scFv captured via anti-V5
T2 construct: also called SARS1

Row | Binder | binding result
32 | B1 | no binding (tested: 300 nM)
33 | B2 | no binding (tested: 300 nM)
34 | B3 | no binding (tested: 300 nM)
35 | B4 | no binding (tested: 300 nM)
36 | B5 | no binding (tested: 300 nM)
37 | B6 | no binding (tested: 300 nM)
38 | B7 | no binding (tested: 300 nM)
39 | B8 | no binding (tested: 300 nM)
40 | B9 | no binding (tested: 300 nM)
41 | B10 | no binding (tested: 300 nM)
42 | B11 | no binding (tested: 300 nM)
43 | B12 | no binding (tested: 300 nM)
44 | B13 | no binding (tested: 300 nM)
45 | B14 | no binding (tested: 300 nM)
46 | B15 | no binding (tested: 300 nM)
47 | B16 | no binding (tested: 300 nM)

Row | Binder | binding result
48 | B17 | no binding (tested: 300 nM)
49 | B18 | no binding (tested: 300 nM)
50 | B19 | no binding (tested: 300 nM)
51 | B20 | no binding (tested: 300 nM)
52 | B21 | no binding (tested: 300 nM)
53 | B22 | no binding (tested: 300 nM)
54 | B23 | no binding (tested: 300 nM)
55 | B24 | no binding (tested: 300 nM)
56 | B25 | no binding (tested: 300 nM)
57 | B26 | no binding (tested: 300 nM)
58 | B27 | no binding (tested: 300 nM)
59 | B28 | no binding (tested: 300 nM)
60 | B29 | no binding (tested: 300 nM)
61 | B30 | no binding (tested: 300 nM)
62 | B31 | no binding (tested: 300 nM)
